Experimental data reported in patent US20170355775A1 (ELANCO TIERGESUNDHEIT, published 2017).

What was measured:
[1] = biological target: T1, Hum-Can CD20 ECD2 V2 (mFc fusion) (human/canine hybrid); assay: ELISA, antigen coated at 200 ng/well, antibody 5 ug/ml
T1 construct: Described as a hybrid version of the original immunogen CD20 ECD2-mFc
T1 chain: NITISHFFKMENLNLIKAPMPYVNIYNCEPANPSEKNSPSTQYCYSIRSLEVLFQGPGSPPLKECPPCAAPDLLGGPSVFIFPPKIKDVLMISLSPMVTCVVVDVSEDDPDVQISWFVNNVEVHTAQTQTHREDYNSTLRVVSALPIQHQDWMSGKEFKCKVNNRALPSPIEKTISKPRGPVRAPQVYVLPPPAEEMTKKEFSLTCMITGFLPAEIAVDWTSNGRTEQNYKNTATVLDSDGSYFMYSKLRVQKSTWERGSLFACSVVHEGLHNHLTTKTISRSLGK
Protocol: (§1) This strategy- enabled identification of the specific sequences in canine CD20 that each mAb binds. Binding was tested using a standard ELISA protocol. Briefly, recombinant canine CD20 ECD2-mFc fusion protein and human/canine hybrid variants thereof were diluted in PBS and bound to a 96-well microtiter plate at 200 ng/well by overnight incubation at 4° C. The plate was rinsed three times with PBST buffer, blocked with a solution of 3% BSA in PBS for one hour at 37° C., then rinsed once with PBST. Mouse monoclonal antibodies 1E4, 1G1, and 1G10 were diluted to a concentration of 5 μg/ml in PBS and 50 μl of this dilution was applied to the plate for 1 hour at room temperature. The plate was then rinsed three times with PBST, and Jackson Immunoresearch goat anti-mouse-IgG light chain-specific HRP conjugate (#115-035-174) diluted to 1:5000 in PBS (50 μL) was added to each well, and the plate was incubated for 45 min at room temperature. The plate was washed three times with PBST, then 100 μl of SureBlueTMB substrate (KPL #52-00-03) was added to each well and the plate was incubated for about 10 min at room temperature. The plate was read at 650 nm in a spectrophotometer.

[2] = biological target: T2, Hum-Can CD20 ECD2 V4 (mFc fusion) (human/canine hybrid); assay: as above
T2 construct: Described as a hybrid version of the original immunogen CD20 ECD2-mFc
T2 chain: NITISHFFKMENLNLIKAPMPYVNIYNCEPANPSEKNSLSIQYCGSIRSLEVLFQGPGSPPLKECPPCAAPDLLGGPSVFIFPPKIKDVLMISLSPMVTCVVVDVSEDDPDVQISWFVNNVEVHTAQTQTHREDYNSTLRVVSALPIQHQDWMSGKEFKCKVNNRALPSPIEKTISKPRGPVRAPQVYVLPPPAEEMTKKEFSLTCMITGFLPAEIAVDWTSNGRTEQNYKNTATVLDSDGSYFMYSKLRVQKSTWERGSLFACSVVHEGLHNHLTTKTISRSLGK
Protocol: as §1

[3] = biological target: T3, canine CD20 ECD2-mFc fusion protein (canine); assay: as above
T3 construct: also called cCD20 ECD2-mFc
T3 chain: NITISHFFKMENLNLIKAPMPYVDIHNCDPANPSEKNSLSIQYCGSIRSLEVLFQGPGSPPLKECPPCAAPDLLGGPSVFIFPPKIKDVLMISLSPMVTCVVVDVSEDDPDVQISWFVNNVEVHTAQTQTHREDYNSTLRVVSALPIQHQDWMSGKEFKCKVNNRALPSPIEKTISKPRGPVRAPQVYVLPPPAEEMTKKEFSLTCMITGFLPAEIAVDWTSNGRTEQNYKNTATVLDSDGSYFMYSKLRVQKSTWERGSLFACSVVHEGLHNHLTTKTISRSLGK
Protocol: as §1

[4] = biological target: T4, Hum-Can CD20 ECD2 V3 (mFc fusion) (human/canine hybrid); assay: as above
T4 construct: Described as a hybrid version of the original immunogen CD20 ECD2-mFc
T4 chain: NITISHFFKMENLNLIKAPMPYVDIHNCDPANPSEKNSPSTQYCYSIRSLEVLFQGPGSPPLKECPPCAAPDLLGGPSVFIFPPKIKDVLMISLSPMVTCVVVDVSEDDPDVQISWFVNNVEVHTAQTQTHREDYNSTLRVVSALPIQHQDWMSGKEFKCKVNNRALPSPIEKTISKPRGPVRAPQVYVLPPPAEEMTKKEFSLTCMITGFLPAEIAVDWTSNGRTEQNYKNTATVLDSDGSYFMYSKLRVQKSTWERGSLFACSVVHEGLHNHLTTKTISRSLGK
Protocol: as §1

[5] = biological target: T5, canine CD20 on canine B cells / B cell lymphoma cells (canine, UniProt Q3C2E2 1-297); assay: FACS on canine B cell lymphoma cells expressing canine CD20
T5 construct: whole, on cells; Endogenous CD20 on canine cells
T5 sequence (looked up): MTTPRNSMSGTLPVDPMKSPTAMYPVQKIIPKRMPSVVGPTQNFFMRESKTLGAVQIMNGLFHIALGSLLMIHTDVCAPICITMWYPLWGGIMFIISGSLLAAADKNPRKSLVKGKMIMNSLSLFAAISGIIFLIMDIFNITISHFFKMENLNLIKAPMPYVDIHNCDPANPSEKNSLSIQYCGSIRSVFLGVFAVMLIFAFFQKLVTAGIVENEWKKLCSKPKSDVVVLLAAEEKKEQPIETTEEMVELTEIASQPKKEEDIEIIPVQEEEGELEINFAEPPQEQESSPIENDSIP
Protocol: The relative affinities of the mouse monoclonal antibodies 1E4, 1G1, and 1G10 for binding to canine CD20 was determined by fluorescent activated cell sorting (FACS) using canine B cell lymphoma cells, which express canine CD20.

B1: mouse monoclonal antibody 1G1 (antibody, V domains shown)
VH: EVQLQQSGAELVRPGASVKLSCTASGFNIKDDYMHWVKQRPEQGLEWIGWIDPENGHTKYASKFQGKATITADTSSNTAYLQLSSLTSEDTAVYYCTSLRHYYGSSYVSPHYYWGQGTTLTVSS
VL: DIVMTQSQKFMSRSVGDRVSVTCKASQNVGPNVAWYQQRPGQSPKPLIYSASYRYSGVPDRFTGSGSGTDFTLTISNVQSEDLAEYFCQQYNNYPYTFGGGTKLEIK
notes: Mouse monoclonal antibody from a hybridoma; also called hybridoma antibody 1G1
- binding result [1]: binds
- binding result [2]: binds
- binding result [3]: binds
- binding result [4]: binds
- Kd [5]: 19.8 nM
